# Results reported in the DeepSol protein solubility set.
# Assay: soluble on expression in E. coli; label from the status in PepcDB or PDB records
row,Sequence,soluble on expression in E. coli
1,GHLDDNVTQEDIQAMLQEGSSAGVIEHNEHAMVKNVFRLDERTISSLMVPRSDIVFLDLNLPLDANLRTVMQSPHSRFPVCRNNVDDMVGIISAKQLLSESIAGERLELVDLVKNCNFVPNSLSGMELLEHFRTTGSQMVFVVDEYGDLKGLVTLQDMMDALTGEFFQEDGS,soluble
2,MNTVRWNIAVSPDVDQSVRMFIAAQGGGRKGDLSRFIEDAVRAYLFERAVE,soluble
3,MGSDKIHHHHHHMARQFIYHMAGLSKTYGNKKILENIHLSFYPDAKIGILGPNGAGKSTILRIMAGIDKEYTGEAWLSEGVRCGYLPQEPFLDASKDVRDNVMEGVADKQAIVERYNELMMNYSEETADESARLQDIIDGQNLWDLESQVEMAMAALGCPPANGDVTKLSGGERRRVALCKLLLSKPDLLLLDEPTNHLDAETTAWLERYLREYSGAVLLVTHDRYFLDNVTGWILELDRGKGIPYEGNYSAYLAAKAKRLAQEGREEAARQRALSREQEWIASSPKGRQAKSKARIKAYDELVQASRERRPGEAQIIIPIGERLGQVVIEVDNLSKAYGERVLIDDLSFKLPAGGIVGVIGANGMGKSTLFKMLTGQEQPDSGQIRIGETAHMSYVDQSRDSLVGDKTVWEEISGGNDVIKLGKYEMNSRAYCGAFNFKGADQQQKVANLSGGQRNRVHLAKLLKEGGNVLLLDEPTNDLDTETLGALEDALENFAGCAVIISHDRMFLDRLATHILAFEGDGHVEWFEGNFAEYEADKVRRFGADSLNLKRVNYKPLTR,not soluble
4,RLLLNGDGTPVGGAWNFDAENRKALPKGVAAPYPMRFSADAITRDVLTLVAERFASHYGSLDTFDYPVTQADAQALWEYFLDFGLAGFGDYQDAMATDEPFLFHARISAALNIGLLDLRQICSDVESAYWSGRVALNAAEGFIRQLIGWREYVRGVYWLKM,not soluble
5,MAHHHHHHMADYNAAGADTAVVDDNVPPGITTKQDEIIQYVAKYVVASCDGARYQDKVRTRTKHNPYFDFLNAKHPYHQYYQYLLESYRHWMRNSEAVGAGTWGGGVDATQGQGQQQQWNEEDYYQYYGAYAGQASGIEFQGNAAGQLGEGSSYVDASSSAHARNASSGVDPTSYESEAVTATGYGAGYDPSAVDPEPAQVATTAGGGEAQAEEDEDDEYELVMENGQWVSRKRM,soluble
6,MFNKKENSSPDVFDTLIGVNTFLEGNIETEGTVRIDGKIKGNVKVKGDVYIGKDANINGNISANNVYMSGRVDGNIEAKGVLRILSTAQLYGDILVQSLISDEGSIFEGNCKMVSASNAQNSDGSVSKNNKNVKDKDGDKSHTSA,not soluble
7,MSLADHIDAIKKEMTSLSSQFNSNKSELERSKQDLSSMQLQMQQQMNDSVQQDLQKAHDTSKKLDNLARTFLALITDPSQQSQLLAEFESISKNGTPQMPVMTPPMMNAVAAMQPHMMMRNPMLNAMGGASPRVSGKGGAPQNGGMNGMSMMQHMQMQAFQAQMMQAQMFQQMPMMMPGMVPGMPPGMAGLPGMMPPNNMAAAMQHFNAQMAAAASVAVSTPSRNPSTSGAASRTRTPLTTSATNSPRPTTEPTIKEEEPQTMEHDVAAAVAATTATATIKQEENSTVAVA,not soluble
8,MILAVLQARMGSSRLPGKSMATLQGEPMIVRQLERLRGARCLSKIIVATSQDPADDALAGFLVSRGNTVHRGAGADILARIARCADAISAVSHVVRLKGDAPFMDPGVVDDAVRMALASGADYTSNRVHRTYPAGLEVEVIKAGVLRQAAAEERDPTARISPTAAIRNQPERWRQAHLRAARDCSRLDWRVKTAADLAFARSVYDALHPGDPDFRMGDVLDLLENRQDIARFAALEHHHHHH,not soluble
9,GPLGSMDAKARNCLLQHREALEKDIKTSYIMDHMISDGFLTISEEEKVRNEPTQQQRAAMLIKMILKKDNDSYVSFYNALLHEGYKDLAALLHDGIPVVSSS,soluble
10,MGSDKIHHHHHHLGFKIEAELLQAMKDLKDSVPASGSERVRNEFIQILLSELPSQGIRRLLELGLLERLIPELMPAIGFDTRSSYHDKDVFEHSLAVLDNTEPNLTLRLAALLHDIDKPNSLTVDEDGEGYCYGHASGGSEIARTILGRLNFDRKTIKAVSAIIKEHMNDFENISELSIKRLIRRVGPDNIDRLFELQLADIKGSKLSSRSPERITKTRNKCFEVLSRREPLTVHDLDISGYDLFSLGYPPGKEIGEAMDYLLDQVINNPSLNQRDTLIALLMNQ,not soluble
11,STGVPATDLQQSIMKNVQPIELYFDNELVTDCSALGVYDNSYLVPLHLFEFDFDTIVLGGRHYKKAECEKVEFELEVNGDMVSSDACLLRVPSGPKVRNIVHLFTNEIELKKMTQVTGIMNSPHQARTVFFGSFLTVRKSILTSDGTVMPNVLSYAAQTSRGYCGAAIVAGSPARIIGIHSAGTGSVAFCSLVSKDALERTLPQKQGNVSRLDDDVRVSVPRRSKLVKSLAYPIFKPDYGPAPLSQFDKRLSDGVKLDEVVFAKHTGDKEISAQDQKWLLRAAHVYAQKVFSRIGFDNQALTEKEAICGIPGLDKMEQDTAPGLPYAQQNKRRKDICDFEEGRLKGAAKFQKDRFMAGDYSDLIYQSFLKDEIRPLEKVRAGKTRLIDVPPMPHVVVGRQLLGRFVAKFHEANGFDIGSAIGCDPDVDWTRFGLELERFRYVYACDYSRFDANHAADAMRVVLNYFFSEDHGFDPGVPAFIESLIDSVHAYEEKRYNIYGGLPSGCSCTSILNTILNNVYILAAMMKAYENFEPDDIQVICYGDDCLIASDFEIDFQQLVPVFSSFGQVITTADKTDFFKLTTLSEVTFLKRAFVPDGAFYKPVMDVKTLEAILSFVRPGTQAEKLLSVAQLAGHCEPEQYERLFEPFVGMYFVPTWRDLRLQWLMKLGC,soluble
12,MAHHHHHHMRTSPLWRLRMTSRPLSLERVFVINLDRRPDRWAAIQAVCARAGLPAERTERVPAVEGSRLDVNAVHHCGFVSALGLRRLKEPPEHHIWGMDLNKAALGCALSHIHLWARIAALGKVSNISAEAPAATLPKQCFLVLEDDSTFADSDDNGSDSPAASPSLPFLDQLQRRMNSVPPDWELVYVSGLDTAKQCLHMQVAKGVARVPQYHRTTNAYLVTPQGARRLLATCVPLTFQLDTAMTMNVGYPPGVVGVAGAQTLPHVLDPVCYTLQPPLMQQAAQLDTDIQH,soluble
13,MGSDKIHHHHHHMEDKQKVIFIEDDPNLGLIIVLALQSKGYEVCYANTLSGIQDMIEKDCPNILLLDLEVGNQNALDYLPFIRSKHPSLPVLIASSHNEGEEITRCYEAGANHYTKKPYDIQEIDFLIQRFCKKGSPISNSISIGDYQLELSTHKLFYKQEQSKTLSPKDFKLFYLLSEQLNQPVSREKLFHEIWDGQEVHDSLNNSISRLRKLLEKDTTLSIDAVKGVGYILSKKDQLSSS,not soluble
14,MSLKALDEPPYLTVGTDVSAKYRGAFCEAKIKTAKRLVKVKVTFRHDSSTVEVQDDHIKGPMKVGAIVEVKNLDGAYQEAVINKLTDASWYTVVFDDGDEKTLRRSSLCLKGERHFAESETLDQLPLTNPEHFGTPVIGKKTNRGRRSNHIPEEESSSSSSDEDEDDRKQIDELLGKVVCVDYISLDKKKALWFPALVVCPDCSDEIAVKKDNIMVRSFKDGKFTSVPRKDVHEITSDTAPKPDAVLKQAFEQALEFHKSRTIPANWKTELKEDSSSSEAEEEEEEEDDEKEKEDNSSEEEEEIEPFPEERENFLQQLYKFMEDRGTPINKRPVLGYRNLNLFKLFRLVHKLGGFDNIESGAVWKQVYQDLGIPVLNSAAGYNVKCAYKKYLYGFEEYCRSANIEFQMALPEKVVNKQCKECENVKEIKVKEENETEIKEIKMEEERNIIPREGHHHHHH,soluble
15,MQFVWEAERTKAKVNAMLCLKRQAVANPLFGKGRLKIFSDDLLFIEQIPQTADNPTDKLLQFRVDFLLFPRKANKSRKNIKNVKKLRTNSLISCNYM,not soluble
16,FQGAMDPEFSMKIGIIGAMEEEVTLLRDKIENRQTISLGGCEIYTGQLNGTEVALLKSGIGKVAAALGATLLLEHCKPDVIINTGSAGGLAPTLKVGDIVVSDEARYHDADVTAFGYEYGQLPGCPAGFKADDKLIAAAEACIAELNLNAVRGLIVSGDAFINGSVGLAKIRHNFPQAIAVEMEATAIAHVCHNFNVPFVVVRAISDVADQQSHLSFDEFLAVAAKQSSLMVESLVQKLAHG,soluble
17,MKRYTPDFPEMMRLCEMNFSQLRRLLPRNDAPGETVSYQVANAQYRLTIVESTRYTTLVTIEQTAPAISYWSLPSMTVRLYHDAMVAEVCSSQQIFRFKARYDYPNKKLHQRDEKHQINQFLADWLRYCLAHGAMAIPVY,not soluble
18,AKQDYYEILGVSKTAEEREIRKAYKRLAMKYHPDRNQGDKEAEAKFKEIKEAYEVLTDSQKRAAYDQYGHAAFEQGGMGGGGFGGGADFSDIFGDVFGDIFGGGRGR,soluble
19,MSSRIRINTKSLLVQPGYSGSKMRDRLFFLLSKYGIRPRDSIGQHFLIIEDVIEKAIETANVNENDVILEVGPGLGFLTDELAKRAKKVYTIEIDQKIIEILKKEYSWNNVKIIQGDAVRVEWPKFNKVVSNIPYKISSPFTFKLLKTDFERAVVMYQLEFALRMVAKPGSRNYSRLSLMAQALGNVEIVMKIGKGAFYPRPKVDSALVLIEPRKDKIVLNENLVKALFQHRRKTVPRALKDSIHMLGVSKDEIRGIINNVPHSNKRVFQLYPEEVKDIEEYLKKHGIIS,soluble
20,MSLRTYLPGESEEVLSEGWTLTLTPADACETPSDIPASLESLHVSVPGTVGQALEAAGKFDRLAPVALNDRDAWYRLTMISDARERAILRFDGLSTIAEIFFNGELIAASQSMFERLEVPVQMTGADELSICFRALAPRLEKPGPRARWRPQMMNTQGLRLIRTTALGYMPGWCPEIHSAGPWRPISLIKQDGVLCTLRSSLDDTGTGKVSIVLQANRDIQSARLICAGYSINLSKAEDGKLLGELIIPGVEIWWPHTHGRPALHEVVLELDGNQHRLGRTGFRQVEIDHGEDGNGFGLKVNGQPVFCRGAVWTTADIVRLPGTRPDYEPWLKKAAEAGMNMIRVGGTMAYETPEFFALCDELGIMVWQDAMLANFDYPAKDDGLRQHIVMEIEQLLESTALSPSFAIFCGGSEMYQQGAMLGLPEQIWKGTLTEEILPELVAEKRPDAAYVANSPSGGALPFFPNAGVGHYYGVGAYCRPLEDARRADLRFAAECLAFANIPEQETLDRYLPGVAVHDPRWKARTPRDRGASWDFEDVRDHYLKLLYEAEPDVLRREDGALYLDMSRAATAEVMEATFAEWRRSGSSCQGALVWTLQDLVPGAGWGIIDAAGRPKSVWHALKRAFRPVQVSLSDEGTNGLDIHILNDTGDSLNTMLELTCLREGLQPVVHAKRPLALLPRESQTIAATDLFGAFFDTTYAYRFGPPSHDVTIARLRDIATGHVIADAFHFPLGRKKALHAANLQVAISETNGHWSLEIGTDRLAQSVHITAEGYRACESWFHLGPGEARKIGLLPETATTEAPPSGEVVSLGSSRRFSEGHHHHHH,not soluble
